Our source for the Log10 PFU/0.2 mL after 20 ug/ml antibody, plaque reduction assay on HEp-2 cells, mean (Log10 PFU/0.2 mL), Log10 PFU/0.2 mL after 20 ug/ml antibody, plaque reduction assay on HEp-2 cells, median (Log10 PFU/0.2 mL) and IC50 of neutralisation, infectivity assay on Hep2 cells values is patent US20180030119A1.

Common to all, as to assay: cell-based or functional assay
Experiment [1] has as its target 26 RSV/B isolates (F protein on virus).
Experiment [2] concerns the target 42 RSV/A isolates (F protein on virus).
Substrate in experiment [3]: F protein of palivizumab-resistant clinical RSV isolate #20, on virus (RSV clinical isolate #20), P11209

B1: AR201 (antibody, V domains shown)
VH: LVQLRESGPGLVKPSQTLSLTCSVSGASINLYDYFWGWIRQAPGRGPEWIGYISGSTYYNPSLKRRATISVDTSKSQFFLELTSVTAADTAVYYCARDVGWGPQYYYGLDVWGQGTTVTVSS
VL: DLVLTQSPGTLSLSPGERATLSCRASHSVQSTSLAWYQQKRGQAPRLLIYGGSSRVTGIPDRFSGSGSGTDFTLTISRLEPEDFAVYYCQQSDRSPPITFGQGTRLEMK
Consider B1, for which, in experiment [1], the Log10 PFU/0.2 mL after 20 ug/ml antibody, plaque reduction assay on HEp-2 cells, mean (Log10 PFU/0.2 mL) is -0.52 and the Log10 PFU/0.2 mL after 20 ug/ml antibody, plaque reduction assay on HEp-2 cells, median (Log10 PFU/0.2 mL) is -0.6. In experiment [2], the Log10 PFU/0.2 mL after 20 ug/ml antibody, plaque reduction assay on HEp-2 cells, mean (Log10 PFU/0.2 mL) is -0.42 and the Log10 PFU/0.2 mL after 20 ug/ml antibody, plaque reduction assay on HEp-2 cells, median (Log10 PFU/0.2 mL) is -0.6. The IC50 of neutralisation, infectivity assay on Hep2 cells in experiment [3] is 1710 nM.
